Data published in patent publication US7527809B2, “Polyhydroxyalkanoate-containing magnetic structure, and manufacturing method and use thereof” (Canon Kabushiki Kaisha, priority 2003, dated 2009).

Assay: PHA synthetic enzyme activity (CoA release, 5,5'-dithiobis-(2-nitrobenzoic acid))
Assay type: biochemical
Settings: purified enzymes, Table 1
Description: Measurement of activity of PHA synthetic enzyme may be performed by using various known methods. For example, the measurement may be performed by the following method that is based on a measuring principle in that CoA released during polymerization of 3-hydroxyacyl CoA by the catalytic action of PHA synthetic enzyme to obtain PHA forms a color with 5,5′-dithiobis-(2-nitrobenzoic acid). Reagent 1: bovine serum albumin (manufactured by Sigma) dissolved in 0.1 M Tris hydrochloride buffer (pH 8.0) 3.0 mg/ml; Reagent 2: 3-hydroxyoctanoyl CoA dissolved in 0.1 M Tris hydrochloride buffer (pH 8.0) in 3.0 mM; Reagent 3: Trichloroacetic acid dissolved in 0.1 M Tris hydrochloride buffer (pH 8.0) in 10 mg/ml; Reagent 4: 5,5′-dithiobis-(2-nitrobenzoic acid) dissolved in 0.1 M Tris hydrochloride buffer (pH 8.0) in 2.0 mM. First reaction (PHA synthesis reaction): 100 μl of Reagent 1 is added to 100 μl of a sample (enzyme) solution and mixed. […] 500 μl of Reagent 4 is added to 500 μl of the resultant supernatant and the resultant is incubated at 30° C. for 10 minutes and then measured for optical density (absorbance) at 412 nm. […]
The activity of each purified enzyme was measured according to the method described above. Further, protein concentration in the sample was determined using a micro BCA protein assay reagent kit (available from Pierce Chemical Inc.). […]

Activity: 2.1 U/ml
B1: Purified enzyme solution (2): purified PHA synthetic enzyme YN2-C1 from pYN2-C1 (protein)
chain: MSNKSNDELKYQASENTLGLNPVVGLRGKDLLASARMVLRQAIKQPVHSVKHVAHFGLELKNVLLGKSGLQPTSDDRRFADPAWSQNPLYKRYLQTYLAWRKELHDWIDESNLAPKDVARGHFVINLMTEAMAPTNTAANPAAVKRFFETGGKSLLDGLSHLAKDLVHNGGMPSQVNMGAFEVGKSLGVTEGAVVFRNDVLELIQYKPTTEQVYERPLLVVPPQINKFYVFDLSPDKSLARFCLRNNVQTFIVSWRNPTKEQREWGLSTYIEALKEAVDVVTAITGSKDVNMLGACSGGITCTALLGHYAAIGENKVNALTLLVSVLDTTLDSDVALFVNEQTLEAAKRHSYQAGVLEGRDMAKVFAWMRPNDLIWNYWVNNYLLGNEPPVFDILFWNNDTTRLPAAFHGDLIELFKNNPLIRPNALEVCGTPIDLKQVTADIFSLAGTNDHITPWKSCYKSAQLFGGNVEFVLSSSGHIQSILNPPGNPKSRYMTSTEVAENADEWQANATKHTDSWWLHWQAWQAQRSGELKKSPTKLGSKAYPAGEAAPGTYVHER
modifications: Pseudomonas cichorii YN2; FERM BP-7375
Relative activity: 4.1 U/mg protein
